Reference: patent US20250223358A1 (ANTENGENE BIOLOGICS, published 2025)

Tests used:
[1] = biological target: T1, human CD3 (human, UniProt P07766 23-207; P04234 22-171; P09693 23-182); test: FACS on Jurkat cells
T1 construct: whole, on cells; also called hCD3; CD3 on Jurkat cells

[2] = biological target: T1, human CD3; test: cell-based or functional assay

T1 sequence (P07766 23-207, chain 1 of 3): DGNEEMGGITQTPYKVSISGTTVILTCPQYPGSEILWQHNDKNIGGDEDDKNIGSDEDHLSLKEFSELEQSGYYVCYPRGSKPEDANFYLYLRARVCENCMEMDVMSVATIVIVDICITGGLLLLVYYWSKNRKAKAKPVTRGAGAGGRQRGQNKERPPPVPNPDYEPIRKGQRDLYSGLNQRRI
T1 sequence (P04234 22-171, chain 2 of 3): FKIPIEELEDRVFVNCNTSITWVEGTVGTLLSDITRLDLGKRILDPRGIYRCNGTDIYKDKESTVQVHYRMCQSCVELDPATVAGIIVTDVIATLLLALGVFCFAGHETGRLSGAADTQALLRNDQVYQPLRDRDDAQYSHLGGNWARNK
T1 sequence (P09693 23-182, chain 3 of 3): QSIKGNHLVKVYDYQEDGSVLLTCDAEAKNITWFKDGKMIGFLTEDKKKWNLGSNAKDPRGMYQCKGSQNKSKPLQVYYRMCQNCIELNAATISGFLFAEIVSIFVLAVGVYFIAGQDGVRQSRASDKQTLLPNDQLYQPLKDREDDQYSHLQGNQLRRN

EC50 [1] | Top FACS signal [1] | EC50_Fold change (Jurkat-NFAT-luciferase activation, normalized to ch40-C12-C10-E9) [2] | Top FACS signal_Fold change (Jurkat-NFAT-luciferase activation, normalized to ch40-C12-C10-E9) [2] | Binder
0.51 nM | 1210 | 0.72 fold | 0.88 fold | hu40E9-L2H3-N93W.L (antibody, V domains shown) VH: EVQLVQSGAEVKKPGSSVKVSCKASGYTFSSYVIHWVRQAPGQGLEWMGYINPYNDVIKYNEKFKGRVTLTSDKSTSTAYMELSSLRSEDTAVYYCARDSYYSYDGFAYWGQGTLVTVSS VL: EIVLTQSPDFQSVTPKEKVTITCSASSSVSYMHWYQQKPDQSPKRLIYDTSKLASGVPSRFSGSGSGTDFTLTINSLEAEDAATYYCQQWSSWPPTFGGGTKVEIK
0.32 nM | 1450 | 0.65 fold | 0.82 fold | hu40E9-L2H3-D56G.H (antibody, V domains shown) VH: EVQLVQSGAEVKKPGSSVKVSCKASGYTFSSYVIHWVRQAPGQGLEWMGYINPYNGVIKYNEKFKGRVTLTSDKSTSTAYMELSSLRSEDTAVYYCARDSYYSYDGFAYWGQGTLVTVSS VL: EIVLTQSPDFQSVTPKEKVTITCSASSSVSYMHWYQQKPDQSPKRLIYDTSKLASGVPSRFSGSGSGTDFTLTINSLEAEDAATYYCQQWSSNPPTFGGGTKVEIK
0.6 nM | 1360 | 0.74 fold | 0.87 fold | hu40E9-L2H3-N93S.L (antibody, V domains shown) VH: EVQLVQSGAEVKKPGSSVKVSCKASGYTFSSYVIHWVRQAPGQGLEWMGYINPYNDVIKYNEKFKGRVTLTSDKSTSTAYMELSSLRSEDTAVYYCARDSYYSYDGFAYWGQGTLVTVSS VL: EIVLTQSPDFQSVTPKEKVTITCSASSSVSYMHWYQQKPDQSPKRLIYDTSKLASGVPSRFSGSGSGTDFTLTINSLEAEDAATYYCQQWSSSPPTFGGGTKVEIK
2.39 nM | 771 | 4.95 fold | 0.99 fold | hu40E9-L2H3-G106A.H (antibody, V domains shown) VH: EVQLVQSGAEVKKPGSSVKVSCKASGYTFSSYVIHWVRQAPGQGLEWMGYINPYNDVIKYNEKFKGRVTLTSDKSTSTAYMELSSLRSEDTAVYYCARDSYYSYDAFAYWGQGTLVTVSS VL: EIVLTQSPDFQSVTPKEKVTITCSASSSVSYMHWYQQKPDQSPKRLIYDTSKLASGVPSRFSGSGSGTDFTLTINSLEAEDAATYYCQQWSSNPPTFGGGTKVEIK

Second part, the binder before the results:

Binder | EC50 [1] | Top FACS signal [1] | EC50_Fold change (Jurkat-NFAT-luciferase activation, normalized to ch40-C12-C10-E9) [2] | Top FACS signal_Fold change (Jurkat-NFAT-luciferase activation, normalized to ch40-C12-C10-E9) [2]
hu40E9-L2H3 (antibody, V domains shown, humanized 40-C12-C10-E9) VH: EVQLVQSGAEVKKPGSSVKVSCKASGYTFSSYVIHWVRQAPGQGLEWMGYINPYNDVIKYNEKFKGRVTLTSDKSTSTAYMELSSLRSEDTAVYYCARDSYYSYDGFAYWGQGTLVTVSS VL: EIVLTQSPDFQSVTPKEKVTITCSASSSVSYMHWYQQKPDQSPKRLIYDTSKLASGVPSRFSGSGSGTDFTLTINSLEAEDAATYYCQQWSSNPPTFGGGTKVEIK | 0.65 nM | 1580 | 2.43 fold | 1.18 fold
hu40E9-L2H3-N55S.H (antibody, V domains shown) VH: EVQLVQSGAEVKKPGSSVKVSCKASGYTFSSYVIHWVRQAPGQGLEWMGYINPYSDVIKYNEKFKGRVTLTSDKSTSTAYMELSSLRSEDTAVYYCARDSYYSYDGFAYWGQGTLVTVSS VL: EIVLTQSPDFQSVTPKEKVTITCSASSSVSYMHWYQQKPDQSPKRLIYDTSKLASGVPSRFSGSGSGTDFTLTINSLEAEDAATYYCQQWSSNPPTFGGGTKVEIK | 0.51 nM | 1160 | 1.35 fold | 1.03 fold
hu40E9-L2H1 (antibody, V domains shown, humanized 40-C12-C10-E9) VH: EVQLVQSGAEVKKPGSSVKVSCKASGGTFSSYVIHWVRQAPGQGLEWMGYINPYNDVIKYNEKFKGRVTITADKSTSTAYMELSSLRSEDTAVYYCARDSYYSYDGFAYWGQGTLVTVSS VL: EIVLTQSPDFQSVTPKEKVTITCSASSSVSYMHWYQQKPDQSPKRLIYDTSKLASGVPSRFSGSGSGTDFTLTINSLEAEDAATYYCQQWSSNPPTFGGGTKVEIK | 0.73 nM | 892 | 5.73 fold | 1.37 fold
hu40E9-L2H3-D99E.H (antibody, V domains shown) VH: EVQLVQSGAEVKKPGSSVKVSCKASGYTFSSYVIHWVRQAPGQGLEWMGYINPYNDVIKYNEKFKGRVTLTSDKSTSTAYMELSSLRSEDTAVYYCARESYYSYDGFAYWGQGTLVTVSS VL: EIVLTQSPDFQSVTPKEKVTITCSASSSVSYMHWYQQKPDQSPKRLIYDTSKLASGVPSRFSGSGSGTDFTLTINSLEAEDAATYYCQQWSSNPPTFGGGTKVEIK | 0.31 nM | 957 | 1.19 fold | 0.91 fold
hu40E9-L2H3-N93R.L (antibody, V domains shown) VH: EVQLVQSGAEVKKPGSSVKVSCKASGYTFSSYVIHWVRQAPGQGLEWMGYINPYNDVIKYNEKFKGRVTLTSDKSTSTAYMELSSLRSEDTAVYYCARDSYYSYDGFAYWGQGTLVTVSS VL: EIVLTQSPDFQSVTPKEKVTITCSASSSVSYMHWYQQKPDQSPKRLIYDTSKLASGVPSRFSGSGSGTDFTLTINSLEAEDAATYYCQQWSSRPPTFGGGTKVEIK | 0.63 nM | 1420 | 0.81 fold | 1.07 fold
hu40E9-L2H3-D105E.H (antibody, V domains shown) VH: EVQLVQSGAEVKKPGSSVKVSCKASGYTFSSYVIHWVRQAPGQGLEWMGYINPYNDVIKYNEKFKGRVTLTSDKSTSTAYMELSSLRSEDTAVYYCARDSYYSYEGFAYWGQGTLVTVSS VL: EIVLTQSPDFQSVTPKEKVTITCSASSSVSYMHWYQQKPDQSPKRLIYDTSKLASGVPSRFSGSGSGTDFTLTINSLEAEDAATYYCQQWSSNPPTFGGGTKVEIK | 1.16 nM | 1410 | 3.77 fold | 0.74 fold
hu40E9-L2H2 (antibody, V domains shown, humanized 40-C12-C10-E9) VH: EVQLVQSGAEVKKPGSSVKVSCKASGYTFSSYVIHWVRQAPGQGLEWMGYINPYNDVIKYNEKFKGRVTITADKSTSTAYMELSSLRSEDTAVYYCARDSYYSYDGFAYWGQGTLVTVSS VL: EIVLTQSPDFQSVTPKEKVTITCSASSSVSYMHWYQQKPDQSPKRLIYDTSKLASGVPSRFSGSGSGTDFTLTINSLEAEDAATYYCQQWSSNPPTFGGGTKVEIK | 0.81 nM | 1570 | 2.14 fold | 1.28 fold
hu40E9-L2H3-D105R.H (antibody, V domains shown) VH: EVQLVQSGAEVKKPGSSVKVSCKASGYTFSSYVIHWVRQAPGQGLEWMGYINPYNDVIKYNEKFKGRVTLTSDKSTSTAYMELSSLRSEDTAVYYCARDSYYSYRGFAYWGQGTLVTVSS VL: EIVLTQSPDFQSVTPKEKVTITCSASSSVSYMHWYQQKPDQSPKRLIYDTSKLASGVPSRFSGSGSGTDFTLTINSLEAEDAATYYCQQWSSNPPTFGGGTKVEIK | 0.56 nM | 1480 | 1.95 fold | 0.81 fold
